From patent US20210113484A1 (NATIONAL UNIVERSITY OF SINGAPORE, published 2021)

Tests used:
[1] = test system: h6NE-GFPuvTEV (h6NE-GFPuv fusion with a TEV protease site between the AfFtn subunit and GFPuv) [GFP: P42212]
[2] = target: T1, AfFtn with truncated C-terminus and E65K, E128K, E131K, D138A, net positive interior [AfFtnΔC(+)] (Archaeoglobus fulgidus); experiment: gel densitometry of purified protein fractions
T1 construct: 24 copies in the empty shell; about 23 copies where it surrounds one fusion subunit; also called tES(+)
T1 chain: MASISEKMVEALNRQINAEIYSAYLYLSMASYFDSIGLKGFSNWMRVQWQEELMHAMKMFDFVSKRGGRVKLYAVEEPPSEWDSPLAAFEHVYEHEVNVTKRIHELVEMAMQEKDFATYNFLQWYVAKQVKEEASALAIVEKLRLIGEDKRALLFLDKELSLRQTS

[3] = target: T2, native rLuc (un-fused Renilla luciferase) (Renilla reniformis, UniProt P27652 1-311); experiment: cell-free encapsulation by pH shift 5.8 to 8; rLuc luminescence
T2 sequence (looked up): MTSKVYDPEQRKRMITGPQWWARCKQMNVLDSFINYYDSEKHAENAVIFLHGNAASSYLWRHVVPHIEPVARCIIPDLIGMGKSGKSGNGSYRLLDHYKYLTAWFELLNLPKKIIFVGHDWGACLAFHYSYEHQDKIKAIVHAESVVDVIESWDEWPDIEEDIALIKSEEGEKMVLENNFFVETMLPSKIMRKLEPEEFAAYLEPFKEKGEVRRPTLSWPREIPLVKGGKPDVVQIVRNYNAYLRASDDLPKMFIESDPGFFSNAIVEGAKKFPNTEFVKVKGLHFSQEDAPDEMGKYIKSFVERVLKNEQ
Description: The TMB substrate was added for color development and the reaction stopped using 2M H₂SO₄ after 5 mins. Absorbance was recorded at 450 nm. All luciferase reactions took place at ambient temperature (24-27° C.) in a 96-well plate with white interior and were performed at least in triplicates. Following chromatographic purification, equimolar concentrations (500 nM) of purified h6NE-luciferase(+), h6NEluciferase(−), and h6NE-luciferase(+/−) were evaluated for luciferase activity using D-luciferin potassium salt as a substrate. The reaction was initiated by injecting 50μl buffer containing D-luciferin potassium salt (final concentration 200 μM), 50 mM Tris-Cl pH 7.5, 10 mM MgCl₂, 2 mM EDTA, 100 μM ATP, 0.1% BSA, to a 50μl protein sample. Purified tES(+)F116H/tES-rLuc, tES-rLuc, and rLuc were evaluated using Renilla luciferase kit (Promega) with some modifications in the manufacturer's instructions. […] The signal was integrated for 1 min with a 2 s delay and luminescence was measured in Relative Light Units (RLU). […] The steady-state initial velocities, VO, (RLU/sec) for h6NE-luciferase(+/−) and recombinant luciferase were determined by initiating the reaction with different concentration of D-luciferin potassium salt. […] All readings were recorded on a Perkin Elmer Plate reader. […]

[4] = target: T3, native GFPuv (un-fused) (UniProt P42212 1-238 = GFP); experiment: cell-free encapsulation by pH shift 5.8 to 8; GFPuv fluorescence and thermal shift
T3 construct: Any tag on the un-fused protein is not described
Description: (§1) FIGS. 18A-18D show effect of different molar ratios and charge of tES subunits on native GFPuv encapsulation in vitro. […] With increasing amount of GFPuv, denaturation temperature of tES(+)F116H increases. […] Negligible change in the denaturation temperature for 60:10 tES(−)F116H:GFPuv indicates unsuccessful encapsulation of GFPuv within tES(−)F116H as compared to tES(+)F116H. In 18A+ve control is tES:tES-GFPuv (0.5 μM); −ve control is GFPuv. In 18B+ve controls are tES(+)F116H:tES-GFPuv and tES(−)F116H:tES-GFPuv.
(§2) GFP, and HRPC and rLuc activities were determined through fluorescence, colorimetric and luminescence assays, respectively, both from cell lysate and purified proteins. For GFP, fluorescence of tES(+)F116H/tES-GFPuv, tES-GFPuv, and GFPuv was read at 508 nm in a 96-well black polystyrene plate (Fisher Scientific) with excitation wavelength fixed at 395 nm was performed or fluorescence read at 508 nm in a 96-well black polystyrene plate (Fisher Scientific) using supernatant from 10-mg bacterial pellet (induced at 0.8 OD and cultured for 24h). […] Absorbance was recorded at 450 nm. […] Following chromatographic purification, equimolar concentrations (500 nM) of purified h6NE-luciferase(+), h6NEluciferase(−), and h6NE-luciferase(+/−) were evaluated for luciferase activity using D-luciferin potassium salt as a substrate.

[5] = target: T4, native HRPC (un-fused horseradish peroxidase isoenzyme C) (horseradish, UniProt P00433 31-338); experiment: cell-free encapsulation by pH shift 5.8 to 8; HRPC activity and thermal shift
T4 sequence (looked up): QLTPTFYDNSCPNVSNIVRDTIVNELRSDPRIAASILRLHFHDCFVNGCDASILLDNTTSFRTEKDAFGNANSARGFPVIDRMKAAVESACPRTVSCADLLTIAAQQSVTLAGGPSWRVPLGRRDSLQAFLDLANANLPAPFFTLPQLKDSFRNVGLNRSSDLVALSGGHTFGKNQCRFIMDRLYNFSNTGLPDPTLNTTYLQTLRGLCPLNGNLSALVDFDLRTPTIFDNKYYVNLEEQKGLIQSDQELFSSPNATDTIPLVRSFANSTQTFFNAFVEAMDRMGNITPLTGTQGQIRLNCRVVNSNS
Description: (§3) With increasing amount of HRPC, denaturation temperature of tES(+)F116H increases. […] Negligible change in the denaturation temperature for 60:10 tES(−)F116H:HRPC indicates unsuccessful encapsulation of HRPC within tES(−)F116H as compared to tES(+)F116H.
as §2, with “24h). The activity of tES(+)F116H/tES-HRPC, tES-HRPC, and HRPC was assayed using TMB substrate in a 96-well crystal-clear polystyrene plate (Greiner Bio-One). Briefly, fractions were incubated in assay buffer containing 25 mM Tris-HCl pH-8.0, 5 mM CaCl₂, 2.5 μM hemin for 5 mins.” for “24h).”

[6] = target: T3, native GFPuv (un-fused); experiment: cell-free encapsulation by pH shift 5.8 to 8; thermal shift assay
Description: as §1
Inclusion body purification protocol is same as herein described. […] Fractions around the eluted peak were collected and their activity analyzed to identify fractions containing the POI.

[7] = target: T4, native HRPC (un-fused horseradish …); experiment: cell-free encapsulation by pH shift 5.8 to 8; SEC fractions' HRPC activity and thermal shift assay
Description: as §3
as §2, with “24h). The activity of tES(+)F116H/tES-HRPC, tES-HRPC, and HRPC was assayed using TMB substrate in a 96-well crystal-clear polystyrene plate (Greiner Bio-One). Briefly, fractions were incubated in assay buffer containing 25 mM Tris-HCl pH-8.0, 5 mM CaCl₂, 2.5 μM hemin for 5 mins.” for “24h).”

Molecule: TEVprotease (Sigma)
- TEV protease cleavage, Western blot [1]: the protease cleaved h6NE-GFPuvTEV

B1: tES-rLuc (His-tagged AfFtn subunit with truncated C-terminus fused to Renilla luciferase) (other)
chain: MASISEKMVEALNRQINAEIYSAYLYLSMASYFDSIGLKGFSNWMRVQWQEELMHAMKMFDFVSERGGRVKLYAVEEPPSEWDSPLAAFEHVYEHEVNVTKRIHELVEMAMQEKDFATYNFLQWYVAEQVEEEASALDIVEKLRLIGEDKRALLFLDKELSLRQTS
notes: also called tES-rLuc fusion subunit; not shown: N-terminal His-tag from pBAD/HisB; Renilla luciferase (rLuc), a 36 kDa protein from sea pansy, Renilla reniformis
- ratio of fusion subunit to encapsulating tES subunits [2]: 20 tES subunits per fusion subunit

B2: tES(+)F116H (other)
chain: MASISEKMVEALNRQINAEIYSAYLYLSMASYFDSIGLKGFSNWMRVQWQEELMHAMKMFDFVSKRGGRVKLYAVEEPPSEWDSPLAAFEHVYEHEVNVTKRIHELVEMAMQEKDHATYNFLQWYVAKQVKEEASALAIVEKLRLIGEDKRALLFLDKELSLRQTS
notes: also called F116HAfFtnΔC(+); AfFtn net positive variant subunit with truncation of unstructured C-terminus and F116H mutation
- binding result [3]: binds
- binding result [4]: binds
- binding result [5]: binds

B3: tES(-)F116H (other)
chain: MASISEKMVEALNRQINAEIYSAYLYLSMASYFDSIGLKGFSNWMRVQWQEELMHAMKMFDFVSERGGRVKLYAVEEPPSEWDSPLAAFEHVYEHEVNVTKRIHELVEMAMQEKDHATYNFLQWYVAEQVEEEASALDIVEKLRLIGEDKRALLFLDKELSLRQTS
notes: also called AfFtn subunit with truncation of unstructured C-terminus and F116H mutation
- binding result [6]: no binding (tested: 60:10 molar ratio)
- binding result [7]: no binding (tested: molar ratios of 60:8 and 60:10)

B4: h6NE-HRPC (His-tagged AfFtn subunit with truncated C-terminus fused to horseradish peroxidase isoenzyme C, C-terminal c-Myc epitope) (other)
chain: MASISEKMVEALNRQINAEIYSAYLYLSMASYFDSIGLKGFSNWMRVQWQEELMHAMKMFDFVSERGGRVKLYAVEEPPSEWDSPLAAFEHVYEHEVNVTKRIHELVEMAMQEKDFATYNFLQWYVAEQVEEEASALDIVEKLRLIGEDKRALLFLDKELSLRQTSQLTPTFYDNSCPNVSNIVRDTIVNELRSDPRIAASILRLHFHDCFVNGCDASILLDNTTSFRTEKDAFGNANSARGFPVIDRMKAAVESACPRTVSCADLLTIAAQQSVTLAGGPSWRVPLGRRDSLQAFLDLANANLPAPFFTLPQLKDSFRNVGLNRSSDLVALSGGHTFGKNQCRFIMDRLYNFSNTGLPDPTLNTTYLQTLRGLCPLNGNLSALVDFDLRTPTIFDNKYYVNLEEQKGLIQSDQELFSSPNATDTIPLVRSFANSTQTFFNAFVEAMDRMGNITPLTGTQGQIRLNCRVVNSNS
notes: also called tES-HRPC; tES-HRP; not shown: N-terminal His-tag from pBAD/HisB
- ratio of fusion subunit to encapsulating tES subunits [2]: 19 tES subunits per fusion subunit
